According to US12077763B2, “RNA-based control of powdery mildew” (Greenlight Biosciences, Inc., priority 2021, dated 2024):

Experiments:
[1] = system: E. necator; experiment: Leaf disc assay, dry inoculum (settling tower), decrease in disease severity / hyphal growth (Example 2); details: decrease in disease severity (hyphal growth) relative to untreated control, value ± SE; for % decrease =/− SE TP1: time point 1 (untreated control hyphal growth ≥50%); for % decrease =/− SE TP2: time point 2
[2] = system: GS1885, GS3336, GS1875, GS1879 transcripts; experiment: Gene specific qRT-PCR of GS1885, GS3336, GS1875, GS1879 transcripts in leaf discs (Example 3); assay type: in vivo, E. necator; details: six-days post inoculation, FIG. 4
Protocol: FIG. 4. Gene specific qRT-PCR analysis of GS1885, GS3336, GS1875, GS1879 transcripts at 6-dpi in leaf discs. The 2-ΔΔCT method was used to analyze the relative changes in gene expression. Gene expression was normalized to the untreated control. GS145 (a non-target dsRNA sequence) was also included as control. Asterisks denote significant differences compared to untreated control (UTC). Statistical comparisons between treatments were performed with ANOVA, followed by Welch's analysis.
qRT-PCR was performed to validate the effect of exogenous dsRNA on the expression of selected targeted genes for which activity of dsRNA had been shown by leaf assay (as described in Example 2). Samples were treated with dsRNA, inoculated after 24 hours and six leaf discs per treatment were collected at six-days post inoculation (dpi) for further analysis.

Molecule | % decrease =/− SE TP1 [1] | % decrease =/− SE TP2 [1] | gene silencing in E. necator by sprayed dsRNA / gene expression levels vs untreated control [2]
GS2668 (nucleic acid) sense: UUCCUAGUCAAACGUGCAUCUAGUGGAGGUGUACAAUUUUCUCGUGAUCCCCUAAACUUAACAAAUGUGCAUUCUCGCAAAUAUGCCGGAUUUGUUAACGAUAAGGCUGUCGGAAUUCUUCCCAUUGAAGGUGGUAAAGGAGGUAUUACUUUGAUCACCAAAAAAACUAAAUUUACCCAAAAACCUUCUAGCGCCAUAUACACAACAGUUUUUGGUGGUAAUAAAACUUCAAGACGGACAUAUAAGGGGGUUGUCAAUACUGUUGUCAAAUCAAGAUAUCGAUCUGAUCUUCGUGCUGAAGCUGUUGCUCGUGCGUCUGCUAUUCGGUACUCGCAAAAACCAAAGGGUGAUCUUCCUAAGAAGAAAUUGCGUGGAUCAAAAGCUAAAAAGG antisense: CCUUUUUAGCUUUUGAUCCACGCAAUUUCUUCUUAGGAAGAUCACCCUUUGGUUUUUGCGAGUACCGAAUAGCAGACGCACGAGCAACAGCUUCAGCACGAAGAUCAGAUCGAUAUCUUGAUUUGACAACAGUAUUGACAACCCCCUUAUAUGUCCGUCUUGAAGUUUUAUUACCACCAAAAACUGUUGUGUAUAUGGCGCUAGAAGGUUUUUGGGUAAAUUUAGUUUUUUUGGUGAUCAAAGUAAUACCUCCUUUACCACCUUCAAUGGGAAGAAUUCCGACAGCCUUAUCGUUAACAAAUCCGGCAUAUUUGCGAGAAUGCACAUUUGUUAAGUUUAGGGGAUCACGAGAAAAUUGUACACCUCCACUAGAUGCACGUUUGACUAGGAA | 46 ± 3% | 38 ± 4% | 
GS1885: dsRNA trigger SEQ ID NO 213; gene target ribosomal processing RNA binding nucleolar protein (nucleic acid) TACGGATCGATAGACGGGTGAGTGAAAGATGAAGTGCAGGATTTTTCTCTATAAGTTTCTTACGTTGTAGCGCCGAAGCTTCTCTAAGTTTAATCTCTGATGGAGATAAAACGTTATATATAGGCGTACCAACAGCAATTGTCCCCTCTTTAAGTAGATATAACTTTCGCTTATCTTTGTCTCGGTCAGTGCGGAAGTTTGTCCCAGCTTCTGTAAGTTTTACAGCTTTTTCTCGATTAACTGCTCTTGACACTTGAAGTACGCGACCTTCTATTGTGTATAAGCCATTCTTATCAGCAGTTTCATCCTCTAAAATAGAGTTTTTAGCTTTAACAGCGTTTGCACCACTTTTGAAGGTACGAGGTGCACCATGGTAACAAGAGTCCGCATCTTCTTGTCTATAGAAGCAAACAAAGCCAGTGCCTTTAGGTCGACCAGTATTATTGTCTATGACCA | 67 ± 4% | 58 ± 5% | Induced Gene Silencing
ES48: dsRNA trigger SEQ ID NO 111; gene target Hypotethical effector (nucleic acid) DNA: AGTAGCAGCGGACATCGCCGACGGCCCTACACTGTCAGGGCTACCTGGGGTTGCAGATTTCGACTTGTCTTCAGCGTCCTCCCCAAGTCTCGAGAAAAGACTTTGTTTTAGACGAGGATGCAATAAAAAATCTAAACACGCATCAGGCTTCCAATGTAAGAAGAAACATTTCAGTCTGGCGGCGGTAGAAAAAGCAAAAGCCGTAGCCTGCGCAAAGATCAAAGAAAACAAGCAGCGCAATGCCTTTCCTGCTCTTTACACCGCAACCGATTTCGAAACTCCCGGGCCTTATCTAGAATGGCCAATCAAGCGCAATGGAAGATTTTGGAATAATTTGAGAAGAGGCCGTTACCGCATCATCCTAACCGAAAACTGCAAAGTTGTCGGTGCTGTGATCCGGAAAAGCAATGGTTCATACCGCACATGCAAGAAACTGAGCGAAAAAGATGAAGATGAAGTTGATGATGATGATGAAAAAGAA | 15 ± 6% | 1 ± 3% | 
GS3336: sprayed dsRNA for which activity had been shown by leaf assay; presumably listed in Table 1B (nucleic acid) sense: AAUGAUGUAAGCUCCAUGGGAAUUCAUAACCUGAGUGAGCAUCAAUAGCUUGGAAUAGUCGACAGAUAAUCCAACAAUACAUCGUAACUAAGUGAAGAUUGCCAGUUAUCAGACACCAUACAGUUGGCAUUAAGACUGUUCCUGCGCCAAGAACCAUUGUUUCUAUUGGUGAAGCAUAUUCAGCUGCUAGUCCGAAGGGUGCAGAGUAAUGAUGAUGUAUUUUAUGAAUAUGUUUGUAGAAAGGACCCCAAUGAAAUAAUCGAUGCAUCCAAUAAUGCCACGUAUCUUCCAACACGAAAAAGAAAGCAAUCUGAAGACACAUAGUUUUUAAUGAUGGAAAUGGGACACCAACAUCCAUACCACAAGCCUUUGUCAAUGGAUGAAAAAGCCAAAUUUGA antisense: UCAAAUUUGGCUUUUUCAUCCAUUGACAAAGGCUUGUGGUAUGGAUGUUGGUGUCCCAUUUCCAUCAUUAAAAACUAUGUGUCUUCAGAUUGCUUUCUUUUUCGUGUUGGAAGAUACGUGGCAUUAUUGGAUGCAUCGAUUAUUUCAUUGGGGUCCUUUCUACAAACAUAUUCAUAAAAUACAUCAUCAUUACUCUGCACCCUUCGGACUAGCAGCUGAAUAUGCUUCACCAAUAGAAACAAUGGUUCUUGGCGCAGGAACAGUCUUAAUGCCAACUGUAUGGUGUCUGAUAACUGGCAAUCUUCACUUAGUUACGAUGUAUUGUUGGAUUAUCUGUCGACUAUUCCAAGCUAUUGAUGCUCACUCAGGUUAUGAAUUCCCAUGGAGCUUACAUCAUU | 72 ± 2% | 57 ± 4% | Induced Gene Silencing
GS2674 (nucleic acid) sense: UUGAGAAAUUAUUUUCUCUUAUAGCGAAUUUGAUUGAGUAUUUUAUGUGAUAUUCACGUUGUUGGACCCUUAUAGAUCUGGGAUUUAGGGUCUUAGAAGACUCGUCUUAAAGCUUGCCCCAACGUAUGAAGUAUUAAAUACGUUACUUUUGAUAUGAAUAUAUUUUUUAUAUACACGAAUUAAUUUAAUCGAAGAGACCAAAGCCCAUAUCUUCAUCAGACUCUUCUUCUUUUUCUUCUU antisense: AAGAAGAAAAAGAAGAAGAGUCUGAUGAAGAUAUGGGCUUUGGUCUCUUCGAUUAAAUUAAUUCGUGUAUAUAAAAAAUAUAUUCAUAUCAAAAGUAACGUAUUUAAUACUUCAUACGUUGGGGCAAGCUUUAAGACGAGUCUUCUAAGACCCUAAAUCCCAGAUCUAUAAGGGUCCAACAACGUGAAUAUCACAUAAAAUACUCAAUCAAAUUCGCUAUAAGAGAAAAUAAUUUCUCAA | 17 ± 4% | 5 ± 6% | 
GS1875: dsRNA trigger SEQ ID NO 168; gene target Mitochondrial RNA-splicing protein MRS3 (nucleic acid) AAAGCTCCAGCTGAGCAATGAGTAAGTGGATCGTAAGCCTTTGATGGGTTCAGAAATGTAGATACAGATTCGTATGCGAGAAGTTGAAGTGCTGTAAATGGTACAGTCATGGAAAGAGTAGTTGGATACGAGATATAGAAGGCTGTGATGCCTTCAGTGCGATAGATATAGCGGGCACAATCACTCAGTGATCTATAAATTTTGCGAGAGTTATGCATTTGCATTCTTTGCTTTATTACATCAAATGGGTTCATTAAAGCATCACTTGCAATTGTTGCGCATGCCCCACTTGTAATGCGCATGCCCCACTTGTAACTATGTAGCTTCAGTAAGTGCTCAATATCAAGGATAAATTGGCGATGTAGTCATATATGTCTGATTCCTTAATCAAAATTCTTAATACAGACCTGCTGCAATAGGATGATGAGCTCCTGTTTGATTACCTCCCATGAGATGTTTGACAGCTTCATAGGTTGCAAAATA | 55 ± 4% | 41 ± 5% | Induced Gene Silencing
GS2679 (nucleic acid) sense: CCGCCAUACUGGGGGAUUAGAACCUUGUCGCCAACCUUGACAUUACAAGACACUCUGUUUCCAUCUUUGCCAACUGCACCAGGUCCUACAGCUAUAACGUGGGCUUCAUUGAGUUCCUUGACACUUUUUUCGGGAAGAAAAAUGCCACUCGCAGUCUUUGCUUCUGCCUUCACUCGUUGUACAAGAACCCGGUCAAGUAAAGGAGCAAGGGACUUGAUUGAUUUGAGUGUUGAAGCCAUGUUAGAGGAUAACGGACAGUGAAUUAUAAAGACUGUGCAAUAAAAUUGGUUUAAGAGAAAAGAUCUUUGAAGUCGCGUUACGUUAAAGUCGCUAUCUGUU antisense: AACAGAUAGCGACUUUAACGUAACGCGACUUCAAAGAUCUUUUCUCUUAAACCAAUUUUAUUGCACAGUCUUUAUAAUUCACUGUCCGUUAUCCUCUAACAUGGCUUCAACACUCAAAUCAAUCAAGUCCCUUGCUCCUUUACUUGACCGGGUUCUUGUACAACGAGUGAAGGCAGAAGCAAAGACUGCGAGUGGCAUUUUUCUUCCCGAAAAAAGUGUCAAGGAACUCAAUGAAGCCCACGUUAUAGCUGUAGGACCUGGUGCAGUUGGCAAAGAUGGAAACAGAGUGUCUUGUAAUGUCAAGGUUGGCGACAAGGUUCUAAUCCCCCAGUAUGGCGG | 25 ± 3% | 24 ± 5% | 
GS1879: dsRNA trigger SEQ ID NO 142; gene target Chaperone-dependent E3 ubiquitin protein ligase (nucleic acid) CTGAATTTCTGAGTTCCGCTATCTTTTTATCTCTTCTTTCCTCAAGTCCGTATTGAAGTTCGTGAGATAATTTACTTCGATTCATCTCTCTTTTACTTTCTTGTGCCTCCCATCCCATTTTTTTACATTTCATCACTAACTCAGTTATTGGCTCTATACTGTTAGCCCCTTTTGTTCCTGCATACATCTCTTCCATACAAAATTTTCGCGCAGTCTTTGCAGATTGAAATGCCTCATCGTAATAATTTAGCGCCAGTTGTGCTTGGGCCAGTTGGAAATATGCTTTCATATTTGATGGGAGGAGACGTAAAGCGCATTGGGCATCTTCAATTACACGATGATGAAGAGATAATTTAAGAAGTACCATTGCACGATTTGTATAAAGTACTGGATTTTGGGGATCACAATTGATCGCTTTTGTGTAAAACATTTCAGCACGCGTATAATCACCAGACTTAAAATATTTATTTC | 49 ± 5% | 41 ± 7% | Induced Gene Silencing
